Reference: patent US20210024615A1 (LIVERPOOL SCHOOL OF TROPICAL MEDICINE, published 2021)

B1: MMR (receptor, UniProt P22897 19-1383, looked up)
chain: LLDTRQFLIYNEDHKRCVDAVSPSAVQTAACNQDAESQKFRWVSESQIMSVAFKLCLGVPSKTDWVAITLYACDSKSEFQKWECKNDTLLGIKGEDLFFNYGNRQEKNIMLYKGSGLWSRWKIYGTTDNLCSRGYEAMYTLLGNANGATCAFPFKFENKWYADCTSAGRSDGWLWCGTTTDYDTDKLFGYCPLKFEGSESLWNKDPLTSVSYQINSKSALTWHQARKSCQQQNAELLSITEIHEQTYLTGLTSSLTSGLWIGLNSLSFNSGWQWSDRSPFRYLNWLPGSPSAEPGKSCVSLNPGKNAKWENLECVQKLGYICKKGNTTLNSFVIPSESDVPTHCPSQWWPYAGHCYKIHRDEKKIQRDALTTCRKEGGDLTSIHTIEELDFIISQLGYEPNDELWIGLNDIKIQMYFEWSDGTPVTFTKWLRGEPSHENNRQEDCVVMKGKDGYWADRGCEWPLGYICKMKSRSQGPEIVEVEKGCRKGWKKHHFYCYMIGHTLSTFAEANQTCNNENAYLTTIEDRYEQAFLTSFVGLRPEKYFWTGLSDIQTKGTFQWTIEEEVRFTHWNSDMPGRKPGCVAMRTGIAGGLWDVLKCDEKAKFVCKHWAEGVTHPPKPTTTPEPKCPEDWGASSRTSLCFKLYAKGKHEKKTWFESRDFCRALGGDLASINNKEEQQTIWRLITASGSYHKLFWLGLTYGSPSEGFTWSDGSPVSYENWAYGEPNNYQNVEYCGELKGDPTMSWNDINCEHLNNWICQIQKGQTPKPEPTPAPQDNPPVTEDGWVIYKDYQYYFSKEKETMDNARAFCKRNFGDLVSIQSESEKKFLWKYVNRNDAQSAYFIGLLISLDKKFAWMDGSKVDYVSWATGEPNFANEDENCVTMYSNSGFWNDINCGYPNAFICQRHNSSINATTVMPTMPSVPSGCKEGWNFYSNKCFKIFGFMEEERKNWQEARKACIGFGGNLVSIQNEKEQAFLTYHMKDSTFSAWTGLNDVNSEHTFLWTDGRGVHYTNWGKGYPGGRRSSLSYEDADCVVIIGGASNEAGKWMDDTCDSKRGYICQTRSDPSLTNPPATIQTDGFVKYGKSSYSLMRQKFQWHEAETYCKLHNSLIASILDPYSNAFAWLQMETSNERVWIALNSNLTDNQYTWTDKWRVRYTNWAADEPKLKSACVYLDLDGYWKTAHCNESFYFLCKRSDEIPATEPPQLPGRCPESDHTAWIPFHGHCYYIESSYTRNWGQASLECLRMGSSLVSIESAAESSFLSYRVEPLKSKTNFWIGLFRNVEGTWLWINNSPVSFVNWNTGDPSGERNDCVALHASSGFWSNIHCSSYKGYICKRPKIIDAKPTHELLTTKADTRKMDPSK

What was measured:
Test in all cases: ELISA
IgG1-Fc = molecular target: T1, IgG1-Fc (human, UniProt P01857 104-330 = IgG part)
T1 construct: domain: Fc

human FcγRIIIA = human FcγRIIIA (human, UniProt P08637 17-208)
Sequence of human FcγRIIIA (P08637 17-208 limits assumed): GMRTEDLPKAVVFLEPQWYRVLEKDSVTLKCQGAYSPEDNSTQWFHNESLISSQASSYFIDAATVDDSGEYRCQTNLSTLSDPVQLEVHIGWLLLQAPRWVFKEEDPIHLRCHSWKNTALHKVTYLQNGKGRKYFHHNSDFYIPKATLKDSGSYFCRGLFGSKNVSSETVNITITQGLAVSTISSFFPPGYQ

MBL = MBL (UniProt P11226 21-248)
Sequence of MBL (P11226 21-248 limits assumed): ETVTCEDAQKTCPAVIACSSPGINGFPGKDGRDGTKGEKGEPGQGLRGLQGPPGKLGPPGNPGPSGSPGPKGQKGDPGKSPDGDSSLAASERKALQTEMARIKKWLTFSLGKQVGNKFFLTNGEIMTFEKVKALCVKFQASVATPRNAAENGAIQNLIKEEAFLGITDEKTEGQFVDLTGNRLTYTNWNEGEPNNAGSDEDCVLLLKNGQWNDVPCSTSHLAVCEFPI

tetrameric human DC-SIGN = molecular target: T2, tetrameric human DC-SIGN (human, UniProt Q9NNX6 66-404)
T2 sequence (looked up): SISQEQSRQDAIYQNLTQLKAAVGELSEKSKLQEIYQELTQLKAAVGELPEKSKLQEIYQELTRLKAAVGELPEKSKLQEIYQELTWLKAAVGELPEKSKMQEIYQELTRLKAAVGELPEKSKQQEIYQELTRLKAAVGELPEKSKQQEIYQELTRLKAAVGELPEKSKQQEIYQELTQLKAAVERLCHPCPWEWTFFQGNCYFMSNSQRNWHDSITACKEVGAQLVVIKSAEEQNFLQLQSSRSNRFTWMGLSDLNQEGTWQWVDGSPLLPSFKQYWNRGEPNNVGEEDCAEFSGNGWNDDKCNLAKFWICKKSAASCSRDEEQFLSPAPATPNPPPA

Siglec-3 = Siglec-3 (UniProt P20138 18-259)
Sequence of Siglec-3 (P20138 18-259 limits assumed): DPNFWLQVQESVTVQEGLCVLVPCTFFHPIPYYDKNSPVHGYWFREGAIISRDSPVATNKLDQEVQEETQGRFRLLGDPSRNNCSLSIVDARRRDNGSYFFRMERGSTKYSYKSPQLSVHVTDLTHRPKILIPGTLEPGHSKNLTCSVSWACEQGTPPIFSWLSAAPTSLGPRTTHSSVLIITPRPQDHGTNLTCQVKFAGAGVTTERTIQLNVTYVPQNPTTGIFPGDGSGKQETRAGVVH

dectin-2 = molecular target: T3, dectin-2 (UniProt Q6EIG7 46-209)
T3 construct: also called dec-2
T3 sequence (looked up): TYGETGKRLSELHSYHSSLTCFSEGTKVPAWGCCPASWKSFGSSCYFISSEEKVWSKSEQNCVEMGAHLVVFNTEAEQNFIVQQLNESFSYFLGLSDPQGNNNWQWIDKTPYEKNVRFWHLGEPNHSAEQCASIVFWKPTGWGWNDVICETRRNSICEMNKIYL

dectin-1 = molecular target: T4, dectin-1 (UniProt Q9BXN2-2 66-201)
T4 construct: also called dec-1
T4 sequence (looked up): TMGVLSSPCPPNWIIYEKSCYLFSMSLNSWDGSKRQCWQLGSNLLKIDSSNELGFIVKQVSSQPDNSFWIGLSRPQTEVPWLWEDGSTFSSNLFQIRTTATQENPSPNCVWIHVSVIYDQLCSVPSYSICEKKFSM

clec-4d = molecular target: T5, clec-4d (UniProt Q8WXI8 39-215)
T5 sequence (looked up): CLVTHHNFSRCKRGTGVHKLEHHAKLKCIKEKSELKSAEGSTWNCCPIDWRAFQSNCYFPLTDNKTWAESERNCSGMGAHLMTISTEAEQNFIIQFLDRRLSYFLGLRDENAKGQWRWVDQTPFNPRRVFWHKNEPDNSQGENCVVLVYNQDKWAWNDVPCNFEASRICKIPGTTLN

clec-4a = molecular target: T6, clec-4a (UniProt Q9UMR7 70-237)
T6 construct: also called DCIR
T6 sequence (looked up): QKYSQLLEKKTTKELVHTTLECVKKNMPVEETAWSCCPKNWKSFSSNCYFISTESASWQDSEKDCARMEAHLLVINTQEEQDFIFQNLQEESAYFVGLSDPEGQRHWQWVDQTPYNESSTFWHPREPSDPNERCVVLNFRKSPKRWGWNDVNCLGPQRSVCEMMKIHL

MMR = molecular target: B1
C1q = C1q (UniProt P02745 23-245; P02746 28-253; P02747 29-245)
Sequence of C1q (P02745 23-245, chain 1 of 3): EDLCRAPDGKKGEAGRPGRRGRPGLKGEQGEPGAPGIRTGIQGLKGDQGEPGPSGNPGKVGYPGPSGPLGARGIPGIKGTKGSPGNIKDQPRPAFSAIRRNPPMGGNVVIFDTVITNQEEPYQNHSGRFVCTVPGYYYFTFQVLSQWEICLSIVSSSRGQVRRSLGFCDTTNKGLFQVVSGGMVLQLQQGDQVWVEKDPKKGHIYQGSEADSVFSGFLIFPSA
Sequence of C1q (P02746 28-253, chain 2 of 3): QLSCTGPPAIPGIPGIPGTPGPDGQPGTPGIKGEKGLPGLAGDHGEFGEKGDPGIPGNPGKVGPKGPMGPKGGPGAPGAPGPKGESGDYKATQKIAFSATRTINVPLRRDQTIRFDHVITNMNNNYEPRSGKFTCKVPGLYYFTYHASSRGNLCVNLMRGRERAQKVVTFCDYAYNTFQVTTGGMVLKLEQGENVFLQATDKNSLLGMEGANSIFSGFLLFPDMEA
Sequence of C1q (P02747 29-245, chain 3 of 3): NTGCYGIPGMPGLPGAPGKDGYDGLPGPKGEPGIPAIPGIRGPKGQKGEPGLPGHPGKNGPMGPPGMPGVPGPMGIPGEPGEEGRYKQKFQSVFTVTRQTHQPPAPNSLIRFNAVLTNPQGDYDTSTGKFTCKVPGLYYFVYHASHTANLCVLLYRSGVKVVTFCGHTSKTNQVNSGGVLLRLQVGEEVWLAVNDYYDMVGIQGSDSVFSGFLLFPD

Measured: binding result

B1
no binding: IgG1-Fc

B2: Siglec-1 (receptor, UniProt Q9BZZ2 20-1641, looked up)
chain: SWGVSSPQDVQGVKGSCLLIPCIFSFPADVEVPDGITAIWYYDYSGQRQVVSHSADPKLVEARFRGRTEFMGNPEHRVCNLLLKDLQPEDSGSYNFRFEISEVNRWSDVKGTLVTVTEEPRVPTIASPVELLEGTEVDFNCSTPYVCLQEQVRLQWQGQDPARSVTFNSQKFEPTGVGHLETLHMAMSWQDHGRILRCQLSVANHRAQSEIHLQVKYAPKGVKILLSPSGRNILPGELVTLTCQVNSSYPAVSSIKWLKDGVRLQTKTGVLHLPQAAWSDAGVYTCQAENGVGSLVSPPISLHIFMAEVQVSPAGPILENQTVTLVCNTPNEAPSDLRYSWYKNHVLLEDAHSHTLRLHLATRADTGFYFCEVQNVHGSERSGPVSVVVNHPPLTPVLTAFLETQAGLVGILHCSVVSEPLATLVLSHGGHILASTSGDSDHSPRFSGTSGPNSLRLEIRDLEETDSGEYKCSATNSLGNATSTLDFHANAARLLISPAAEVVEGQAVTLSCRSGLSPTPDARFSWYLNGALLHEGPGSSLLLPAASSTDAGSYHCRARDGHSASGPSSPAVLTVLYPPRQPTFTTRLDLDAAGAGAGRRGLLLCRVDSDPPARLQLLHKDRVVATSLPSGGGCSTCGGCSPRMKVTKAPNLLRVEIHNPLLEEEGLYLCEASNALGNASTSATFNGQATVLAIAPSHTLQEGTEANLTCNVSREAAGSPANFSWFRNGVLWAQGPLETVTLLPVARTDAALYACRILTEAGAQLSTPVLLSVLYPPDRPKLSALLDMGQGHMALFICTVDSRPLALLALFHGEHLLATSLGPQVPSHGRFQAKAEANSLKLEVRELGLGDSGSYRCEATNVLGSSNTSLFFQVRGAWVQVSPSPELQEGQAVVLSCQVHTGVPEGTSYRWYRDGQPLQESTSATLRFAAITLTQAGAYHCQAQAPGSATTSLAAPISLHVSYAPRHVTLTTLMDTGPGRLGLLLCRVDSDPPAQLRLLHGDRLVASTLQGVGGPEGSSPRLHVAVAPNTLRLEIHGAMLEDEGVYICEASNTLGQASASADFDAQAVNVQVWPGATVREGQLVNLTCLVWTTHPAQLTYTWYQDGQQRLDAHSIPLPNVTVRDATSYRCGVGPPGRAPRLSRPITLDVLYAPRNLRLTYLLESHGGQLALVLCTVDSRPPAQLALSHAGRLLASSTAASVPNTLRLELRGPQPRDEGFYSCSARSPLGQANTSLELRLEGVRVILAPEAAVPEGAPITVTCADPAAHAPTLYTWYHNGRWLQEGPAASLSFLVATRAHAGAYSCQAQDAQGTRSSRPAALQVLYAPQDAVLSSFRDSRARSMAVIQCTVDSEPPAELALSHDGKVLATSSGVHSLASGTGHVQVARNALRLQVQDVPAGDDTYVCTAQNLLGSISTIGRLQVEGARVVAEPGLDVPEGAALNLSCRLLGGPGPVGNSTFAWFWNDRRLHAEPVPTLAFTHVARAQAGMYHCLAELPTGAAASAPVMLRVLYPPKTPTMMVFVEPEGGLRGILDCRVDSEPLASLTLHLGSRLVASSQPQGAPAEPHIHVLASPNALRVDIEALRPSDQGEYICSASNVLGSASTSTYFGVRALHRLHQFQQ
no binding: IgG1-Fc

B3: [change]/[change] (other)
chain: NKTHTCPPCPAPELLGGPSVFLFPPKPKDTLMISRTPEVTCVVVDVSHEDPEVKFNWYVDGVEVHNAKTKPREEQYNSTYRVVSVLTVCLQDWLNGKEYKCKVSNKALPAPIEKTISKAKGQPREPQVYTLPPSREEMTKNQVSLTCLVKGFYPSDIAVEWESNGQPENNYKTTPPVLDSDGSFFLYSKLTVDKSRWQQGNVFSCSVMHEALHNHYTQKSLSLSPGKLVLGPPLYNVSLVMSDTAGTAY
not listed: IgG1-Fc
no binding: all other assays above
